Assay results published in patent publication US20030170230A1 (published 2003).

Molecular target: tetanus toxoid (UniProt P04958 2-1315)
Experiment: ELISA

B1: Sample C: protein from vectors pG31020, pG31030 and pG31027, consisting of FvL-AHECa, FvH-AHECb and ubiquitin-AHECc with a disulfide bridge between AHECa and … (other)
VL: MDIVMTQSQKFMSTSVGDRVSVTCKASQNVGASVAWYQQKPGQSPKILIYSASYRYSGVPDRFTGSGSGTDFTLTISNVQSEDLAEYFCQQYNGYPLTFGAGTKLELRTSDSLRLQQLFRDCEDEETWIREKEPIAASTAMDIGINSDPNSSSVDKLAAALEHHHHHH
VH: MGSGIEGRMASEVQLQQSGPELVKPGASVKMSCKASGYTFTNYIMYWVTQRPGQGLEWIGYIHPYNDDTKYNEKFKDKATLTSDRSSRTAYMELSSLTSEDSAVYYCARKKANFGYGPWFAYWGQGTLVTVSARTKHQALQAEIAGHEPRIKACTQKGNAMVEESLEHHHHHH
chain: not shown
  Ka: 4.3e+08 M⁻¹
